Results from patent US20240029824A1 (University of Washington, published 2024).

Tests used:
[1] = target: T1, DHT03 chain C (SEQ ID NO: 59); assay: chains mixed and annealed, SEC, negative stain EM; A4B4C4 ring
T1 chain: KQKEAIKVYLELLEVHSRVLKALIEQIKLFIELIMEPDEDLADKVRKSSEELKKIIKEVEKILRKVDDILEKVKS

DHT01-4arm-01 chain C [2] = target: T2, DHT01-4arm-01 chain C; assay: bicistronic expression, SAXS, negative stain EM; A2B2 ring
T2 construct: also called DHT01-4arm-02 chain C; C2-DHT01-01 chain B
T2 chain: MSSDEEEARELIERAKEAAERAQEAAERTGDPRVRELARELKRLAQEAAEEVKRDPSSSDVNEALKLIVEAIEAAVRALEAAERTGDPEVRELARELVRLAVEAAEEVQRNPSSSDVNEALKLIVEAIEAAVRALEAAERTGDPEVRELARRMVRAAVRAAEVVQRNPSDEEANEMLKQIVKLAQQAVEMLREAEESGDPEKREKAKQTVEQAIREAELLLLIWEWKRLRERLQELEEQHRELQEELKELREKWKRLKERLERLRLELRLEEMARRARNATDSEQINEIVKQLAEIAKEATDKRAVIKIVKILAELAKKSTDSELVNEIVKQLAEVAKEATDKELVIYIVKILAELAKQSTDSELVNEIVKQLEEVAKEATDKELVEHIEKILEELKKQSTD

[3] = target: T3, DHT03_3arm_A21/B21/C82 chain C; assay: three components purified separately, mixed equimolar, heat annealed, SEC, negative stain EM
T3 construct: also called chain C DHR82 fusion; chain C of C3-DHT03-01-DHR82 and C4-DHT03-01-DHR82
T3 chain: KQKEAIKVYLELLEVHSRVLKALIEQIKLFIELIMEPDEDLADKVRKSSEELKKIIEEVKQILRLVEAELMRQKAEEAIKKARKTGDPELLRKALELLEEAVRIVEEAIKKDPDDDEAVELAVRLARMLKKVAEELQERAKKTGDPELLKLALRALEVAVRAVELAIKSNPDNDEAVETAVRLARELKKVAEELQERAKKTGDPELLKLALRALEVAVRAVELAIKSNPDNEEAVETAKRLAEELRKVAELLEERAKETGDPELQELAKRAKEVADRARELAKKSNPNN
Text: As is evident from the images in FIGS. 4c and 4d, the cyclic structures retain one of the original heterotrimer helical hairpins in each corner; these short, outward facing protein chains provide fusion points for further elaboration of higher order symmetric assemblies. To evaluate the potential for building up larger nanostructures using the rings as hubs, and explore the modularity of the designed building blocks, we replaced the original outward facing chain C helical hairpin with the chain C DHR82 fusion (as it was the largest 4-repeat DHR) from FIG. 3d, row 8. This was done for two designs (C3-DHT03-01 and C4-DHT03-01), with chain C replaced by fusion C82 through expressing and purifying the three components separately, mixing them in equal molar quantities, and reconstituting using heat annealing.
An AKTA PURE FPLC system was used. Heterotrimer bases, arm extensions, coiled coil C2 rings, and all constructs mentioned in SI were passed through a Cytvia Superdex S200 Increase 10/300 GL column, while C3/C4 rings made from DHT03 were passed through a Cytvia Superdex S6 Increase 10/300 GL column. The mobile phase was TBS (25 mM Tris-HCl pH 8.0, 100 mM NaCl or 25 mM Tris-HCl pH 8.0, 150 mM NaCl). Samples ran at a flow rate of 0.75 ml/min and fractions were collected at 0.5 ml.

[4] = target: T1, DHT03 chain C (SEQ ID NO: 59); assay: chains mixed and annealed, SEC, negative stain EM; A3B3C3 ring
[5] = target: T4, DHT05_3arm_A62/B71/C62 chain C; assay: SEC and SAXS; chains of one ABC heterotrimer
T4 chain: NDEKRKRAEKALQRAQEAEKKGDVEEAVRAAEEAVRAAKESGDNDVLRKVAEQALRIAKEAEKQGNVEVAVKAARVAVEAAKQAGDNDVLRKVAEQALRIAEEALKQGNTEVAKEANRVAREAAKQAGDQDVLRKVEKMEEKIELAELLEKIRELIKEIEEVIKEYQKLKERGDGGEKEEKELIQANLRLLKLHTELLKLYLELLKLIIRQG

DHT01-4arm-01 chain C [6] = target: T2, DHT01-4arm-01 chain C; assay: co-expression, pull-downs, SEC, native MS, SAXS; chains of one ABC heterotrimer
[7] = target: T1, DHT03 chain C (SEQ ID NO: 59); assay: X-ray crystal structure, 3.35 A
Procedure: Purified DHT03_2arm_A21/B21/C (long) protein at a concentration of 41 mg/mL was used to conduct sitting drop, vapor-diffusion crystallization trials using the JCSG Core I-IV screens (NeXtal Biotechnologies). Crystals of DHT03_2arm_A21/B21/C long grew from drops consisting of 100 nL protein plus 100 nL of a reservoir solution consisting of 2M (NH4)2SO4, 0.1M sodium acetate pH4.6 at 18° C., and were cryoprotected by supplementing the reservoir solution with 2.2M sodium malonate pH5. Native diffraction data was collected at APS beamline APS-23-ID-B, indexed to P1 and reduced using XDS⁴⁸. The structure was phased by molecular replacement using Phaser™. The chain A of a set of ˜49 lowest energy predicted models from Rosetta™ were used as search models. Several of these models gave clear solutions. Chain B and Chain C were fitted manually in Coot™ and rigid body refinement by Phenix™. The following model building and refinement were done by Coot™ and Phenix™.

B1: C4-DHT03-02 chain B (designed binder)
chain: MGTTNFHLINGSEEARQIIEKIVEEVARKAGTEVHFEKSDGTLEIRVKNLHEELERRIKKAIEAALAAQIAKKLAEQIERQLSNTELAKEAKKLATEAEKARDSEAVQVVLLALEIVQQLPDTELAKEALELAEEAVKSTDSEALKVVKLALEIVQQLPDTELAREALELAKEAVKSTDSEALKVVYLALRIVQQLPDTELARLALELAKKAVEMTAQEVLEIARAALKAAQAFPNTELAELMLRLAEVAARVMKELERNDEEIKKSDELDDESLLEDIVELLKEIIKLWKILVEVSDVMLKLIS
notes: four copies in the A4B4C4 ring
Question: Does B1 bind [1]?
Answer: binds

B2: C2-DHT01-03 chain A (designed binder)
chain: MGDEEEKLRESLEEQKKRVKEIEREHEEIREALKRLQQSVLRQAVRLAKLGDDSRMIASIIRDLVKQALRATDEREQKKIKKALEELAQNATDEALKLLIEAAKSLLRAAEASERGDEEEFRKAAEKALELAKRLVEIAKKQSLPEFVLAAAEIALAVAELAAKNNDSEVLEKALRSAAEVAQRLLEVAEKENNQELVEEAAKILKRALEIVEKAAKKLKERNDQSSDVNRALTLIRRAQEAADQLLEHARKSGDPEVWELAIRLVARLVEAAAKVAANMSDEQQNTQLRRLIAKAEVWLLNEEFKEAEKRFRKLQEETKKALEEVEELNQRFEEALEEVERIKRRQKGGSGWSHPQFEK
notes: two copies in the A2B2 ring
Question: Does B2 bind (DHT01-4arm-01 chain C [2])?
Answer: binds

B3: C4-DHT03-01 chain B (designed binder)
chain: MGTTNFHLINGSEEARQLIQKAVEAISKKEGTEVHFEKSDGTLEIRVKNLHPRQEDLIKKFIEALLLALVAKGELEQAEKEGDAEVALRAVEKVVRVAELLLRLAKEAGSEEALKAALEIAEQAARLAARVFTLAVKQNDSDVAKRAVELIKRVAELLKRIAKESGSEEAKERAEKVEKAAEVAEIAARILDQLSNTELAKEALKLASEALKSDIKEALEVVRLALRIVQQLPDTELAREALELAKEAVKSTDSEQLEVVRLALEIVQLAPDTRLARAALKLAKEAVKSTDQEELKKVKAILRVASEVLKLEEEAKKSQEEVERLKQEVEKASKAGLDHEGDSRIFKKIHDVVTKQIKVILRLIAVYAELVAIIG
notes: four copies in the A4B4C4 ring; also called C4-DHT03-01-DHR82 chain B
Question: Does B3 bind [1]?
Answer: binds

Question: Does B3 bind [3]?
Answer: binds

B4: C3-DHT03-02 chain B (designed binder)
chain: TWQWVLINISEEARQLIEKAVRAISKKEGTEVHFEKDDGVLHIRVKNLHEKRAREIHKVAKLILEVAAAERIVRERPGSNLAKKALEIILRAAEELAKADVDAALEAAVRAAEKVVREQPGSNLAKKALEIILRAAEELAKLPDPEALKEAVKAAEKVVREQPNSELAKKAREIIKRAAEELAKSPDKEAIQEAATALAILIELILSNTELAREAKELATEARKATDSEAAKVVFLALFIVVQLPDTELAKEALELAKEAVKSTDSEALKVVELALEIVQQLPDTELAKEALKLAKEAVKSTDSEALKVVYLALRIVQQLPDTELAREALELAKEAVKSTDSEQLEVVRLALEIVQLAPDTRLARAALKLAKEAVKSTDQEELKKVKAILRVASEVLKLEEEAKKSQEEVERLKQEVEKASKAGLDHEGDSRIFKKIHDVVTKQIKVILRLIAVYAELVAIIG
notes: three copies in the A3B3C3 ring
Question: Does B4 bind [4]?
Answer: binds

B5: DHT05_3arm_A62/B71/C62 chain B (designed binder)
chain: SEVEKRLLEIHRQVAESHRILVEVHEALIEALRGNSEEAKEKLKELVKKLEKIIRQEELLLQLLEALVKALQAKKEGDPELVLEAAKDALRVAEQAAKEGDKEMFKQAAELALWLAKQLVEVASKEGDPELVLEAAKVALRVAELAAKNGDKEVFKKAAESALEVAKRLVEVASKEGDPELVEEAAKVAEEVRKLAKKQGDEEVYEKARETAREVKEELKRVREEK
Question: Does B5 bind [5]?
Answer: binds

B6: DHT01-4arm-01 chain B (designed binder)
chain: SEQERREKAKEEVRELNEEFKEAEKRFRKLQEETKKALEEVEELNQRFQEALTEVAAKKLALEISRVIKTLKESGSSYEEIAEIVARIVAEIVEALKRSGASEKDIATIVAAIISAVIQTLKESGSSYEVIAEIVARIVAEIVEALKRSGTSEDEIAEIVARVISEVIRTLKESGSSYEVIKEIVQRIVEEIVEALKRSGTSEDEINEIVRRVKSEVERTLKESGSS
notes: Strep-tag II was added to the N-terminus of chain B of DHT01 arms
Question: Does B6 bind (DHT01-4arm-01 chain C [6])?
Answer: binds

B7: DHT03_2arm_A21/B21/C long chain B (designed binder)
chain: SEKEKVEELAQRIREQLPDTELAREAQELADEARKSDDSEALKVVYLALRIVQQLPDTELAREALELAKEAVKSTDSEALKVVELALKIVQQLPDTELAKEALELAKEAVKSTDSEALKVVELALEIVQQLPDTELAKEALKLAKEAVKSTDSEALKVVYLALRIVQQLPDTELAREALELAKEAVKSTDSEQLEVVRLALEIVQLAPDTRLARAALKLAKEAVKSTDQEELKKVKAILRVASEVLKLEEEAKKSQEEVERLKQEVEKASKAGLDHEGDSRIFKKIHDVVTKQIKVILRLIAVYAELVAIIG
Question: Does B7 bind [7]?
Answer: binds

B8: C2-DHT01-01 chain A (designed binder)
chain: DEEEKLRESLEEQKKRVKEIEREHEEIREALKRLQQSVLRQAVRLAKLGDDSEMIRRIVKDLMQQAIEATDEREVEKIKKAAEELSKNSTDEDLKKQIKAVQELVKAVETVREAKKQGDPKKVLKAAEIAMEVATWAAERNDEMIFKLAAKMAKEVAERLKEVAKKENDSALELAAEAIKAAVEALEAALRTGDPRVRELAKELVRLAKEAAEEATRDSKDSDKNEALKLIVEAIKAAVRALEAAERTGDPEVRELARELVRLAVEAAEEVLRNPSSSDVNRALKLIVRAIEAAVQLLEHAEKSGDPEVRELARELVRRLVEAAEEVQRNPSDEQKNTQLRRLIAKAEVWLLNEEFKEAEKRFRKLQEETKKALEEVEELNQRFEEALEEVERIKRRQK
notes: two copies in the A2B2 ring; ring designs kept a C-terminal His-tag in frame
Question: Does B8 bind (DHT01-4arm-01 chain C [2])?
Answer: binds

B9: C3-DHT03-01 chain B (designed binder)
chain: NTHFIVVHGGEEARQLAETAVREISKKEGTEVRFEKKDGLLSIEVKNLSEELQRLIQELLQLLVRLAALLEAVRAVEEAIKRNPDNDEAVETAVRLARELKKVAELLQELAKKAGVPAILRGALLALEVAVRAVELAIKSNPDNDEAVETAVRLAVVKLALEIVQQLPDTELAREALELAKEAVKSTDSEALKVVYLALRIVQQLPDTELARLALELAKKAVEMTAQEVLEIARAALKAAQAFPNTELAELMLRLAEVAARVMKELERNDEEIKKSDELDDESLLEDIVELLKEIIKLWKILVEVSDVMLKLIS
notes: three copies in the A3B3C3 ring; also called C3-DHT03-01-DHR82 chain B
Question: Does B9 bind [4]?
Answer: binds

Question: Does B9 bind [3]?
Answer: binds

B10: C2-DHT01-02 chain B (designed binder)
chain: DEEEKLRESLEEQKKRVKEIEREHEEIREALKRLQQSVLRQAVRLAKLGDDSEMIQRIVEDLARQAMEATDDREVEKIEKALDELAKNSTDEELKKVIKVAKTLVRVAKLVKEAEELLRQAKEKGSEEDLEKALRTAEEAAREAKKVLEEAEKAQIAEAALLAVELVVRVAELLLRIAKESGSEEALERALRVAEEAARLAKRVLELAEKQGDPEVALRAVELVVRVAELLLRIAKESGSSEALTRAWRVAIEAFQLAVRVLKLAQKQNDSEVARRATELMKRVAELMERIARESGSSAFKAAAEALEAAARTNDKEVVDLARELARLAIEALEEVERNSKSSDVNRALKLILRAIKAAVQLLEHAEKSGDPEVRELARELVRRLVEAAEEVQRNPSDEQKNTQLRRLIAKAEVWLLNEEFKEAEKRFRKLQEETKKALEEVEELNQRFEEALEEVERIKRRQK
notes: two copies in the A2B2 ring
Question: Does B10 bind (DHT01-4arm-01 chain C [2])?
Answer: binds
